The assay concerns the target viral gp41 (HIV-1 transmembrane protein) of HIV-1IIIB (HIV-1IIIB) (UniProt P04578). In words: cell-based or functional assay.

“DP107 (SEQ ID NO:25), synthetic peptide corresponding to amino acids 558 to 595 of HIV-1LAI gp41”: the Cell fusion (IC90) was found to be 1000 nM and the HIV infectivity (IC90) worked out at 1000 nM.
The substance “DP178 (SEQ ID NO:1), synthetic peptide corresponding to amino acids 638 to 673 of HIV-1LAI gp41” showed a Cell fusion (IC90) of 1 nM and an HIV infectivity (IC90) of 80 nM.
On the same counts, the results for “M41 (maltose binding protein fused to the extracellular domain of HIV-1 gp41, residues 540-686) (from UniProt P0AEX9 27-392; P03377 540-686)” are more than 50000 nM and more than 16000 nM.
For “M41-P (M41 with an Ile to Pro mutation at position 578) (from UniProt P0AEX9 27-392; P03377 540-686)”, the Cell fusion (IC90) was 83 nM and the HIV infectivity (IC90) came to 66 nM.

The values above are taken from patent US6951717.
